Assay results as given in publication PMC10198859.
Starred links: 1 amine or outer side, 2 acyl side, 3 side chain; linkers in the order of their positions; H or OH if unused. No end group written: not given here. *: point of attachment. Suc = O=C(CCC(=O)[*:2])[*:1]; For = O=C*

Target: murine TLR2/TLR6 (mouse (endogenous in RAW 264.7 and P388.D1)) (UniProt Q9QUN7)
Chain of UniProt Q9QUN7 (Q9QUN7 25-784, chain 1 of 2): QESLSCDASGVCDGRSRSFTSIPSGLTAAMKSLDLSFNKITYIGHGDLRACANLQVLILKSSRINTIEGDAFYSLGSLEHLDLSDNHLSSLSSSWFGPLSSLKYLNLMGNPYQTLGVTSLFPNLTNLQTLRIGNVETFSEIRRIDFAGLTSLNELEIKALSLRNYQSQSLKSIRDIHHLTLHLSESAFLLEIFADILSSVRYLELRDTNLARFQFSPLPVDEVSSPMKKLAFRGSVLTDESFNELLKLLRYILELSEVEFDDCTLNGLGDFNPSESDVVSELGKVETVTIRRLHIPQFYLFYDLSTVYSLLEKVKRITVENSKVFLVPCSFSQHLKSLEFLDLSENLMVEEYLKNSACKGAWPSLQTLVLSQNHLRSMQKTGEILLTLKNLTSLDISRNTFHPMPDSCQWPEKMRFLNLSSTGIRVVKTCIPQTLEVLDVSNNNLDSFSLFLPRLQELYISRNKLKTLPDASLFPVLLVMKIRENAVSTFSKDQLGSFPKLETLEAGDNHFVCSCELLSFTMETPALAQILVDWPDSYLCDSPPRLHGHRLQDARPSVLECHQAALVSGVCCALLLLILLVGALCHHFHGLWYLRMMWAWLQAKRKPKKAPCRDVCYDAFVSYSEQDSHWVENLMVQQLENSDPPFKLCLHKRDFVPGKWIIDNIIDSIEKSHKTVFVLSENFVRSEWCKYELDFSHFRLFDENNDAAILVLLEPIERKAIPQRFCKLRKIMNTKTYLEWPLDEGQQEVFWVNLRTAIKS
Chain of UniProt Q9QUN7 (Q9EPW9 28-795, chain 2 of 2, further chain): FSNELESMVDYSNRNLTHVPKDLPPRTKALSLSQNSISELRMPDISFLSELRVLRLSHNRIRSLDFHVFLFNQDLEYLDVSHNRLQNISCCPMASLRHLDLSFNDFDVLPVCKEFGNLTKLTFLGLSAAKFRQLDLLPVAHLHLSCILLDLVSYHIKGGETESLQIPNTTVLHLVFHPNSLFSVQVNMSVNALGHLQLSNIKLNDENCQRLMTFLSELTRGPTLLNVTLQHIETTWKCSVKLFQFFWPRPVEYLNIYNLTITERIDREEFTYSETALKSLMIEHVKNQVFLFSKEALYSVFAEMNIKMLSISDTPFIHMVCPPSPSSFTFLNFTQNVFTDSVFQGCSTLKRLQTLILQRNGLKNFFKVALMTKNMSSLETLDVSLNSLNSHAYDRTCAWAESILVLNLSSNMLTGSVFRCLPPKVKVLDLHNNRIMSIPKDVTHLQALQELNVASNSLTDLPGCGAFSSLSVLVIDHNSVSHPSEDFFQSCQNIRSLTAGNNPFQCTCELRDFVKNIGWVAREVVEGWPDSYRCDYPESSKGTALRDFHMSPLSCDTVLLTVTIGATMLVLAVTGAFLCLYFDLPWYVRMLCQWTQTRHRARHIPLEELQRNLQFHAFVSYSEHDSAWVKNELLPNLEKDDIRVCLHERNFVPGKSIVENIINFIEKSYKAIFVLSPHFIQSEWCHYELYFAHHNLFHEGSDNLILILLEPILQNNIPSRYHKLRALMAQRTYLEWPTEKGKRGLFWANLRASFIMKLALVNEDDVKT

## -fM-BacSp222 (from UniProt A0A0P0C3P7 2-50) (peptide)
  TNF in the medium (ELISA) of P388.D1 cells, 1 µM -fM-BacSp222, 6 h, without antagonist: 257 pg/mL

## For-MAGLLRFLLSKGRALYNWAKSHVGKVWEWLKSGATYEQIKEWIENALGWR [BacSp222 bacteriocin]
  TNF in the medium (ELISA) of P388.D1 cells, 1 µM BacSp222, 6 h, without antagonist: 252 pg/mL
  TNF in the medium (ELISA) of RAW 264.7 cells, 1 µM BacSp222, 6 h, without antagonist: 976 pg/mL

## For-MAGLLRFLLSKGRALYNWAK(Suc)SHVGKVWEWLKSGATYEQIKEWIENALGWR [suc-K20-BacSp222]
  TNF in the medium (ELISA) of P388.D1 cells, 1 µM suc-K20-BacSp222, 6 h, without antagonist: 213 pg/mL
  TNF in the medium (ELISA) of RAW 264.7 cells, 1 µM suc-K20-BacSp222, 6 h, without antagonist: 1280 pg/mL
